From patent publication US20060216279A1

Biological target: rmGDF8 (R&D) (mouse (from the label rmGDF8 only)) (UniProt O08689)
Test: Biacore, trap captured on amine-coupled Protein A (CM5), rmGDF8 0.312-20 nM as analyte

Chain of UniProt O08689 (O08689 268-376 limits assumed): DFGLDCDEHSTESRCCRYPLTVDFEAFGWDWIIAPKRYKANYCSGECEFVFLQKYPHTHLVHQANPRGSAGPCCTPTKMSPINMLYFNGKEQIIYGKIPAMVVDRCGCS

Kd: 0.0133 nM | koff: 6.2e-05 s⁻¹ | kon: 4.66e+06 M⁻¹ s⁻¹ | t½: 3.1 h
Substance: hGDF8(1-38, 43-64)-hFc (Fc fusion)
